Reference: the supplement of paper PMC10065799, “High-throughput profiling of sequence recognition by tyrosine kinases and SH2 domains using bacterial peptide display” (eLife, 2023)
Blank lines part the entries; values can stand above or below the sequence they belong to.

Assays:
AncSZ = experiment: phosphorylation enrichment, bacterial display (enrichment ratio); higher = better substrate or ligand; peptides without Tyr show the background
EPHB1 = EPHB1 (UniProt P54762); experiment: as above
EPHB2 = EPHB2 (UniProt P29323); experiment: as above
Chain of EPHB2 (P29323 whole entry, looked up): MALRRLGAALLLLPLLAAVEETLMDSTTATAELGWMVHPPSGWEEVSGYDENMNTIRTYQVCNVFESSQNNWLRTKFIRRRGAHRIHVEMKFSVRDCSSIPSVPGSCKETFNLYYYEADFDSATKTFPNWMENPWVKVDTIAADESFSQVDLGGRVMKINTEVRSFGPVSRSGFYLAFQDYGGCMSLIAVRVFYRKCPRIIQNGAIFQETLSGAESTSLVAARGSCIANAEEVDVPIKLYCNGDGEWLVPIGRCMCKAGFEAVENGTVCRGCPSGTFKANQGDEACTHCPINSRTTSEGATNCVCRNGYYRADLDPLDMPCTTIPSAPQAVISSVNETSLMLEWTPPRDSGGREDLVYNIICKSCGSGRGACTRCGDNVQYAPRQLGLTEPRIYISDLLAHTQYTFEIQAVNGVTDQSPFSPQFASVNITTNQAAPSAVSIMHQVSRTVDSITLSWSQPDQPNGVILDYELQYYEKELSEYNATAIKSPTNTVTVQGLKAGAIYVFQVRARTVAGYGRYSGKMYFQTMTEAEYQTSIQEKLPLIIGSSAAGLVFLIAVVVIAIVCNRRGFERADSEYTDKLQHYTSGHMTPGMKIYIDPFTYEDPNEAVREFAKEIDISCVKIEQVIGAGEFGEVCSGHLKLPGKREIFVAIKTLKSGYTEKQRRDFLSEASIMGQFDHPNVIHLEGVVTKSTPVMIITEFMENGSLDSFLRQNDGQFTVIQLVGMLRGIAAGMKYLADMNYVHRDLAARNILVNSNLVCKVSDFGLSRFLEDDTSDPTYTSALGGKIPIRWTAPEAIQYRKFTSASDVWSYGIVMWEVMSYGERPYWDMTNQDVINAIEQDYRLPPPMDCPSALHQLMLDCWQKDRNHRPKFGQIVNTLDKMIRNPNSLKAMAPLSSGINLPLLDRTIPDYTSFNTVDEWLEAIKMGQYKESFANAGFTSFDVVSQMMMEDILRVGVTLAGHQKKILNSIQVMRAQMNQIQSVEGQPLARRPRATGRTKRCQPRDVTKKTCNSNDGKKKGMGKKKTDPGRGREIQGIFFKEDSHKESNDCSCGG

FGFR1 = FGFR1 (UniProt P11362); experiment: as above
FGFR3 = FGFR3 (UniProt P22607); experiment: as above
Chain of FGFR3 (P22607 whole entry, looked up): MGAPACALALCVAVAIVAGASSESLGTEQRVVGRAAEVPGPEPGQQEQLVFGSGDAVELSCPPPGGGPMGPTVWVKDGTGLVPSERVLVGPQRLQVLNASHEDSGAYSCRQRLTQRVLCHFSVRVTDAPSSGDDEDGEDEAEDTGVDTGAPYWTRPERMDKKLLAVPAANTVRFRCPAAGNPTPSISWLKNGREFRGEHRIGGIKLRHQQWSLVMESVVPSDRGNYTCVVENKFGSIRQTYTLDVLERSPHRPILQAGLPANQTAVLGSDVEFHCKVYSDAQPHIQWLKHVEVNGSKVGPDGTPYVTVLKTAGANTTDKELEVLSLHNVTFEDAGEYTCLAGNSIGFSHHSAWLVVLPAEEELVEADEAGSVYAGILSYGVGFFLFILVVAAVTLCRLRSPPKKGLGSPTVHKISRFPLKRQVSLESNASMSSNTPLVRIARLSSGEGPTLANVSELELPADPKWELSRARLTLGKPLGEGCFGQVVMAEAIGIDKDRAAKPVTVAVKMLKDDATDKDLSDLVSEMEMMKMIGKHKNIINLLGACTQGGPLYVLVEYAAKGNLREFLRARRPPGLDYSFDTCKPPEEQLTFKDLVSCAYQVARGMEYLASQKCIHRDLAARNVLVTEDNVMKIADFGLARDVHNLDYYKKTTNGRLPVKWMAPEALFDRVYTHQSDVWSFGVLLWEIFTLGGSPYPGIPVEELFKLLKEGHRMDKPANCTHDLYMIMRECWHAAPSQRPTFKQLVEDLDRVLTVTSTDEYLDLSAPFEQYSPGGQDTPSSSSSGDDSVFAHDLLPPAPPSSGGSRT

Fer (mouse) = experiment: as above
Fes = Fes (UniProt P07332); experiment: as above
Chain of Fes (P07332 whole entry, looked up): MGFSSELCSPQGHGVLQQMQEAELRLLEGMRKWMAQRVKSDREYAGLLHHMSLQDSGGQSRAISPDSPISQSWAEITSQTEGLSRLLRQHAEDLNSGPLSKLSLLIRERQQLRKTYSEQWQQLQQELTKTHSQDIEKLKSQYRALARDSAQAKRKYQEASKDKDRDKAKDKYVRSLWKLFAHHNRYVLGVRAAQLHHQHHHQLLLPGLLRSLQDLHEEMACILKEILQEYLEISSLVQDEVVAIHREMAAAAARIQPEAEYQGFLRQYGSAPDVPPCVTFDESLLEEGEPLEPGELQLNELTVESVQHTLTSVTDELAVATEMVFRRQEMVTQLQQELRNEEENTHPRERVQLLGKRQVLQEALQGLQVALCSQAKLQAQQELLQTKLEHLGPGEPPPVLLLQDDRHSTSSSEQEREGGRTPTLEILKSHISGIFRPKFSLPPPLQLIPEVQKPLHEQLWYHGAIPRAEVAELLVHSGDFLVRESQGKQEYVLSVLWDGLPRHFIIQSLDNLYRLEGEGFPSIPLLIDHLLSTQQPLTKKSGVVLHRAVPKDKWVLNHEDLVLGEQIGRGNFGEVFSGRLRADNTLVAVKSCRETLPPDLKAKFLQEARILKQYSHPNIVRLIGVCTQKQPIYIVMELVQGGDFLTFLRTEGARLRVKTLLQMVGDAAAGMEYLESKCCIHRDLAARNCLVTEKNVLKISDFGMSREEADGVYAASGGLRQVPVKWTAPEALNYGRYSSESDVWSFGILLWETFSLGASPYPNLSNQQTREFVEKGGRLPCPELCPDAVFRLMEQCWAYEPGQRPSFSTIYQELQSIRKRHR

Fyn = Fyn (UniProt P06241); experiment: as above
Chain of Fyn (P06241 whole entry, looked up): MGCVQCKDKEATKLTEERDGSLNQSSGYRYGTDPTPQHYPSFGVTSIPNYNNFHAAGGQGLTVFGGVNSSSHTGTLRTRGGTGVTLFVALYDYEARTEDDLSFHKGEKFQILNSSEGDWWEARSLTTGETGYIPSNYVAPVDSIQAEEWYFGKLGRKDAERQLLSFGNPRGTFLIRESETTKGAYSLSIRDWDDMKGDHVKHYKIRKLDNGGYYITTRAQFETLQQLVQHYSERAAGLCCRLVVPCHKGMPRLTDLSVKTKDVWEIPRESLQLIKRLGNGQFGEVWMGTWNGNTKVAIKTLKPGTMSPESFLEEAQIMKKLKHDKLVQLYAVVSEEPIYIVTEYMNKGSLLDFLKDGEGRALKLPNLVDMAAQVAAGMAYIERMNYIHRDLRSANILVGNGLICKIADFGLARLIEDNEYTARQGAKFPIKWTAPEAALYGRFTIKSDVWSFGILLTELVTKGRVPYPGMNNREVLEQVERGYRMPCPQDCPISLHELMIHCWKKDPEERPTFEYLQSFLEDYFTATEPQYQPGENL

Hck = Hck (UniProt P08631); experiment: as above
Chain of Hck (P08631 whole entry, looked up): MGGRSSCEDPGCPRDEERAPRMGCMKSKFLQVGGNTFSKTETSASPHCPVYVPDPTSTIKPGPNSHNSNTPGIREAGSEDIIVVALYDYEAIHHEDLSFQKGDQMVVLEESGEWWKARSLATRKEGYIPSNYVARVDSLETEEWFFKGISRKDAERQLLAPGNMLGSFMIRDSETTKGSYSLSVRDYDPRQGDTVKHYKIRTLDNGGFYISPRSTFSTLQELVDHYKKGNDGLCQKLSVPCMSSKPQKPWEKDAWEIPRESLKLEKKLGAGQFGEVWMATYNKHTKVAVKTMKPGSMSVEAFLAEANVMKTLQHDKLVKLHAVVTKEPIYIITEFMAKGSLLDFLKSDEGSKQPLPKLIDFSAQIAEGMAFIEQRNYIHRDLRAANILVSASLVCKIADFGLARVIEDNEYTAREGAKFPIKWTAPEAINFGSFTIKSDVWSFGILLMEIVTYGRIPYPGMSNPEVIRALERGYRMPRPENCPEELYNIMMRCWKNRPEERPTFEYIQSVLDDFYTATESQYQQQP

Jak2 = Jak2 (UniProt O60674); experiment: as above
Chain of Jak2 (O60674 whole entry, looked up): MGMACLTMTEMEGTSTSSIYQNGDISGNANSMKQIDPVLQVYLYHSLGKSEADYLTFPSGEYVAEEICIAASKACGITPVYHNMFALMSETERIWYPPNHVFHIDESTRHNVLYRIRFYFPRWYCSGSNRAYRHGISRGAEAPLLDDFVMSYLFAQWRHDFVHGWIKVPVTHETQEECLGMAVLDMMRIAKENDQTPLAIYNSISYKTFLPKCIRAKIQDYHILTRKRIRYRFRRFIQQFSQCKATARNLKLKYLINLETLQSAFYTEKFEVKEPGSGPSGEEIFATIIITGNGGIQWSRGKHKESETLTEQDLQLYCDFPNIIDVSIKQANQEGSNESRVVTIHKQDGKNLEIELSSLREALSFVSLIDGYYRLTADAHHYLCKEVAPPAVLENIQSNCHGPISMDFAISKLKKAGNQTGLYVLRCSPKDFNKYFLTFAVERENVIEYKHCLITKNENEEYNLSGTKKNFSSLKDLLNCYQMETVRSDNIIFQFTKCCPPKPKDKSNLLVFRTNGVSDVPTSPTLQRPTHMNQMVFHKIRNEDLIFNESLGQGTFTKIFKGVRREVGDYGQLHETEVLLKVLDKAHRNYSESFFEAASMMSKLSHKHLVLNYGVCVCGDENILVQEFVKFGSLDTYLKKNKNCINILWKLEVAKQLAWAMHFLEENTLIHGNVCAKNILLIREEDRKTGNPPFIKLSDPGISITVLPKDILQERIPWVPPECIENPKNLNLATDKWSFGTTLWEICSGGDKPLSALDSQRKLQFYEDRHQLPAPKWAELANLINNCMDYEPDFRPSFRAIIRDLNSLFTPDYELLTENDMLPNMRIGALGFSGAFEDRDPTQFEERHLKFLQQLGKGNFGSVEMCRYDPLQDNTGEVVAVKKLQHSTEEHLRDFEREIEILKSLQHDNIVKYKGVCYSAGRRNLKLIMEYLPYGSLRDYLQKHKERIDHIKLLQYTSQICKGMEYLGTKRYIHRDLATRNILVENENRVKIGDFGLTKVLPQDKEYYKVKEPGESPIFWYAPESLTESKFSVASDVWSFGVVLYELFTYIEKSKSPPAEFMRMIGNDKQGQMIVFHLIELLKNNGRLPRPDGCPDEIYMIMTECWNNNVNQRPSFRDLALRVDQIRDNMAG

MERTK = MERTK (UniProt Q12866); experiment: as above
c-Abl (mouse) = experiment: as above
c-Src = experiment: as above
Grb2 SH2 = Grb2 SH2 (UniProt P62993); experiment: SH2 binding enrichment of the phosphorylated peptide, bacterial display (enrichment ratio); higher = better substrate or ligand; peptides without Tyr show the background
SHP2-C SH2 = experiment: as above
c-Src SH2 = experiment: as above
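Wherever SH2 binding enrichment of the phosphorylated peptide, bacterial display is given: peptide library displayed on the E. coli surface as eCPX fusions, selected cells deep-sequenced, score is each peptide's frequency after selection divided by its frequency in the input.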
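Wherever phosphorylation enrichment, bacterial display is given: 11-residue human phosphosite peptides and single-mutation variants displayed on the E. coli surface, counted by deep sequencing, each peptide's frequency after selection divided by its frequency in the unselected input library; frequency after pTyr selection over input frequency; kinase dosed for 20-30% of maximal phosphorylation in three min.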

SH2 binding enrichment (Grb2 SH2): 1.35
SH2 binding enrichment (SHP2-C SH2): 1.27
SH2 binding enrichment (c-Src SH2): 0.819
Sequence: IYHLSYIHNCE [PDE6B_Y227_L228I]
phosphorylation enrichment (AncSZ): 1.3
phosphorylation enrichment (EPHB1): 0.783
phosphorylation enrichment (EPHB2): 0.724
phosphorylation enrichment (FGFR1): 2.65
phosphorylation enrichment (FGFR3): 2.16
phosphorylation enrichment (Fer (mouse)): 1.67
phosphorylation enrichment (Fes): 1.38
phosphorylation enrichment (Fyn): 2.78
phosphorylation enrichment (Hck): 1.81
phosphorylation enrichment (Jak2): 1.18
phosphorylation enrichment (MERTK): 4.22
phosphorylation enrichment (c-Abl (mouse)): 4.3
phosphorylation enrichment (c-Src): 2.65

SH2 binding enrichment (Grb2 SH2): 0.863
SH2 binding enrichment (SHP2-C SH2): 0.73
SH2 binding enrichment (c-Src SH2): 0.568
Sequence: KDHPDYEFQPR [SOX9_Y172_K173E_YF]
phosphorylation enrichment (AncSZ): 1.81
phosphorylation enrichment (EPHB1): 1.05
phosphorylation enrichment (EPHB2): 0.585
phosphorylation enrichment (FGFR1): 0.712
phosphorylation enrichment (FGFR3): 0.614
phosphorylation enrichment (Fer (mouse)): 0.475
phosphorylation enrichment (Fes): 0.723
phosphorylation enrichment (Fyn): 0.448
phosphorylation enrichment (Hck): 0.504
phosphorylation enrichment (Jak2): 0.665
phosphorylation enrichment (MERTK): 0.319
phosphorylation enrichment (c-Abl (mouse)): 0.509
phosphorylation enrichment (c-Src): 0.425

SH2 binding enrichment (Grb2 SH2): 0.509
SH2 binding enrichment (SHP2-C SH2): 0.247
SH2 binding enrichment (c-Src SH2): 1.46
Sequence: KDQGTYEDFVE [MYL6_Y86_YF]
phosphorylation enrichment (AncSZ): 1.31
phosphorylation enrichment (EPHB1): 0.569
phosphorylation enrichment (EPHB2): 0.59
phosphorylation enrichment (FGFR1): 0.906
phosphorylation enrichment (FGFR3): 1.35
phosphorylation enrichment (Fer (mouse)): 0.911
phosphorylation enrichment (Fes): 2.32
phosphorylation enrichment (Fyn): 0.616
phosphorylation enrichment (Hck): 0.966
phosphorylation enrichment (Jak2): 1.94
phosphorylation enrichment (MERTK): 1.12
phosphorylation enrichment (c-Abl (mouse)): 1.97
phosphorylation enrichment (c-Src): 1.31

SH2 binding enrichment (Grb2 SH2): 1.24
SH2 binding enrichment (SHP2-C SH2): 0.919
SH2 binding enrichment (c-Src SH2): 1.18
Sequence: KFDLMYAKWAF [TUBA3E_Y399]
phosphorylation enrichment (AncSZ): 1.18
phosphorylation enrichment (EPHB1): 0.783
phosphorylation enrichment (EPHB2): 0.784
phosphorylation enrichment (FGFR1): 0.669
phosphorylation enrichment (FGFR3): 0.866
phosphorylation enrichment (Fer (mouse)): 5.85
phosphorylation enrichment (Fes): 1.26
phosphorylation enrichment (Fyn): 1.43
phosphorylation enrichment (Hck): 2.16
phosphorylation enrichment (Jak2): 1
phosphorylation enrichment (MERTK): 3.02
phosphorylation enrichment (c-Abl (mouse)): 1.68
phosphorylation enrichment (c-Src): 1.98

Second part, the sequence before the results:

Sequence: IYRASYYRRGD [LTK_Y676]
phosphorylation enrichment (AncSZ): 0.821
phosphorylation enrichment (EPHB1): 0.398
phosphorylation enrichment (EPHB2): 0.422
phosphorylation enrichment (FGFR1): 0.481
phosphorylation enrichment (FGFR3): 0.555
phosphorylation enrichment (Fer (mouse)): 0.453
phosphorylation enrichment (Fes): 0.757
phosphorylation enrichment (Fyn): 0.594
phosphorylation enrichment (Hck): 1.2
phosphorylation enrichment (Jak2): 0.621
phosphorylation enrichment (MERTK): 0.763
phosphorylation enrichment (c-Abl (mouse)): 0.927
phosphorylation enrichment (c-Src): 0.666
SH2 binding enrichment (Grb2 SH2): 0.728
SH2 binding enrichment (SHP2-C SH2): 0.471
SH2 binding enrichment (c-Src SH2): 0.439

Sequence: KACNPYKPPGP
phosphorylation enrichment (AncSZ): 0.629
phosphorylation enrichment (EPHB1): 0.464
phosphorylation enrichment (EPHB2): 0.478
phosphorylation enrichment (FGFR1): 0.462
phosphorylation enrichment (FGFR3): 0.589
phosphorylation enrichment (Fer (mouse)): 0.521
phosphorylation enrichment (Fes): 0.663
phosphorylation enrichment (Fyn): 0.521
phosphorylation enrichment (Hck): 0.496
phosphorylation enrichment (Jak2): 0.881
phosphorylation enrichment (MERTK): 0.543
phosphorylation enrichment (c-Abl (mouse)): 0.524
phosphorylation enrichment (c-Src): 0.699
SH2 binding enrichment (Grb2 SH2): 1.01
SH2 binding enrichment (SHP2-C SH2): 0.893
SH2 binding enrichment (c-Src SH2): 0.76

Sequence: KAPVDYIRKLQ [MITF_Y360_S357P]
phosphorylation enrichment (AncSZ): 0.547
phosphorylation enrichment (EPHB1): 0.416
phosphorylation enrichment (EPHB2): 0.436
phosphorylation enrichment (FGFR1): 0.328
phosphorylation enrichment (FGFR3): 0.423
phosphorylation enrichment (Fer (mouse)): 0.365
phosphorylation enrichment (Fes): 0.616
phosphorylation enrichment (Fyn): 0.338
phosphorylation enrichment (Hck): 0.346
phosphorylation enrichment (Jak2): 0.576
phosphorylation enrichment (MERTK): 0.399
phosphorylation enrichment (c-Abl (mouse)): 0.475
phosphorylation enrichment (c-Src): 0.406
SH2 binding enrichment (Grb2 SH2): 0.912
SH2 binding enrichment (SHP2-C SH2): 0.621
SH2 binding enrichment (c-Src SH2): 0.489

Sequence: KASIMYPSNNC [CXCL11_Y52]
phosphorylation enrichment (AncSZ): 0.673
phosphorylation enrichment (EPHB1): 0.528
phosphorylation enrichment (EPHB2): 0.472
phosphorylation enrichment (FGFR1): 0.484
phosphorylation enrichment (FGFR3): 0.49
phosphorylation enrichment (Fer (mouse)): 0.359
phosphorylation enrichment (Fes): 0.786
phosphorylation enrichment (Fyn): 0.446
phosphorylation enrichment (Hck): 0.459
phosphorylation enrichment (Jak2): 0.604
phosphorylation enrichment (MERTK): 0.368
phosphorylation enrichment (c-Abl (mouse)): 0.518
phosphorylation enrichment (c-Src): 0.394
SH2 binding enrichment (Grb2 SH2): 0.952
SH2 binding enrichment (SHP2-C SH2): 0.504
SH2 binding enrichment (c-Src SH2): 0.589

Sequence: KFLVGYEMLAQ [GALT_Y339_M336L]
phosphorylation enrichment (AncSZ): 0.701
phosphorylation enrichment (EPHB1): 0.434
phosphorylation enrichment (EPHB2): 0.434
phosphorylation enrichment (FGFR1): 0.408
phosphorylation enrichment (FGFR3): 0.661
phosphorylation enrichment (Fer (mouse)): 0.395
phosphorylation enrichment (Fes): 0.977
phosphorylation enrichment (Fyn): 0.386
phosphorylation enrichment (Hck): 0.416
phosphorylation enrichment (Jak2): 0.747
phosphorylation enrichment (MERTK): 0.323
phosphorylation enrichment (c-Abl (mouse)): 0.578
phosphorylation enrichment (c-Src): 0.378
SH2 binding enrichment (Grb2 SH2): 1.01
SH2 binding enrichment (SHP2-C SH2): 1.06
SH2 binding enrichment (c-Src SH2): 2.72
